This note sets out measurements from article PMC8956514.

The data set deals with DNMT5 (Cryptococcus neoformans, UniProt J9VI03 58-2377). Description: fluorescence polarization. For orientation: In fluorescence polarisation assays a small probe gives low polarisation when free and higher when bound to something large.
DNMT5, sequence (J9VI03 58-2377): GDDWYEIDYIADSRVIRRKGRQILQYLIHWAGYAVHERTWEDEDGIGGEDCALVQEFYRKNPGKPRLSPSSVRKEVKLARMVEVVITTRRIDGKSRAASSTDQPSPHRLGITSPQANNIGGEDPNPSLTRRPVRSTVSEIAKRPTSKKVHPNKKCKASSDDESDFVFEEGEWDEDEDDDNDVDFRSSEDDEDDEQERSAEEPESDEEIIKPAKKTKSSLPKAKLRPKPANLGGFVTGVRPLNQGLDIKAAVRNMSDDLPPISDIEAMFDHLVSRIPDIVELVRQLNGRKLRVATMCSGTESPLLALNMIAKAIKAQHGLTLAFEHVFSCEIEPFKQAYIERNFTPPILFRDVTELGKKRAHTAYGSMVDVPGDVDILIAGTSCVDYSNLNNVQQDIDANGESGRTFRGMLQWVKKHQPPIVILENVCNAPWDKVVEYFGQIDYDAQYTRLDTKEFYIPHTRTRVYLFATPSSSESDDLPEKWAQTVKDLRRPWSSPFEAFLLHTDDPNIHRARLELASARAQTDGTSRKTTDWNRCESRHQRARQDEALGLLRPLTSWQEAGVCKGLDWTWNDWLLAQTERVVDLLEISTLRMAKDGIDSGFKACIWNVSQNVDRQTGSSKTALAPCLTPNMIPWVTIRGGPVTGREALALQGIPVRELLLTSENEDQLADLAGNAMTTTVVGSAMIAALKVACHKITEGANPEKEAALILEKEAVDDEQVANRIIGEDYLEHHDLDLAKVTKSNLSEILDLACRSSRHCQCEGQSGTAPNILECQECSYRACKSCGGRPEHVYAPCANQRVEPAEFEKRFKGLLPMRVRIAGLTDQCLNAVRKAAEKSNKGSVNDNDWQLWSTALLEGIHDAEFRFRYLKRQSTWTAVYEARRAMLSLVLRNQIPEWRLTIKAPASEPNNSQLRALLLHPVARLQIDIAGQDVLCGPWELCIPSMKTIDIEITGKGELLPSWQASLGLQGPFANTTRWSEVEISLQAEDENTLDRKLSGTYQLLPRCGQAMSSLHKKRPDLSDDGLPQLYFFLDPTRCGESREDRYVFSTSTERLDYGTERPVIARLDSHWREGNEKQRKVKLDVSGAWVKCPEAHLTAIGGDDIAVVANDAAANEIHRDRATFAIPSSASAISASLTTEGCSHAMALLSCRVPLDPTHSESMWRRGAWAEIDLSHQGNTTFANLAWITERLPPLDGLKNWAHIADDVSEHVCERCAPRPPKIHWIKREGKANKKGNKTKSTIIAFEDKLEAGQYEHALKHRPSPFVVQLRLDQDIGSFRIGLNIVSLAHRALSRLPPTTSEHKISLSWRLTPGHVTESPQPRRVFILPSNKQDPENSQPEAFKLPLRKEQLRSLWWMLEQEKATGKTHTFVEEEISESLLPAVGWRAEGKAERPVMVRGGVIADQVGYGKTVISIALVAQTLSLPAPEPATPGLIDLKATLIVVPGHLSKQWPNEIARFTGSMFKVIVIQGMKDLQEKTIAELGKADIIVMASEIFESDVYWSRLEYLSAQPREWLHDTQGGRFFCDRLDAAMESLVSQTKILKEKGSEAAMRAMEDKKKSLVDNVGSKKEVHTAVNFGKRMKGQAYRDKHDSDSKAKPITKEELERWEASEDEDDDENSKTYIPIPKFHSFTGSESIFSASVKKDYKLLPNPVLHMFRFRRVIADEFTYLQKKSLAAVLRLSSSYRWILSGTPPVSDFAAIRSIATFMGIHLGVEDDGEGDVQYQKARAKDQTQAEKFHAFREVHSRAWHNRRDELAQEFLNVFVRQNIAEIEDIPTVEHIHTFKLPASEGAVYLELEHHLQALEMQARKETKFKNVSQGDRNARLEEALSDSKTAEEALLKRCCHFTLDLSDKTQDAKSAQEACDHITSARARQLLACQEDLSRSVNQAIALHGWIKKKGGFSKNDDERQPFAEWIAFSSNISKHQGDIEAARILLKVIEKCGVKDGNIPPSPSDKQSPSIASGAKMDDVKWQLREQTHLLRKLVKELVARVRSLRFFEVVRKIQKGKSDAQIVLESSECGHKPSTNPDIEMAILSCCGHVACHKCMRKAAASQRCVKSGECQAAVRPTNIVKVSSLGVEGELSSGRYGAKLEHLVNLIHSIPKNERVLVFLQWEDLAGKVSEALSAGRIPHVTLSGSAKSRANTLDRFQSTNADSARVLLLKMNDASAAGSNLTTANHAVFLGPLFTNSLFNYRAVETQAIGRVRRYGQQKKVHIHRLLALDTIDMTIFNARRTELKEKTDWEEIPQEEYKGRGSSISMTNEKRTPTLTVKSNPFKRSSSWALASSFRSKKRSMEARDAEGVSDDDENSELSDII

B1: FAM-hmDNA (dsDNA)
DNA 1: CCATGCGCTGACACTAGAATTGCCTAAGACCATACA
DNA 2: TGTATGGTCTTAGGCAATTCTAGTGTCAGCGCATGG
modifications: 5-methylcytosine at position 30 of strand 2 (hemimethylated CpG)
With B1, the binding signal is ~4 fold preference over umDNA.
